Results on 1 molecule are retold here after article PMC5444744, “Interaction between granulin A and enolase 1 attenuates the migration and invasion of human hepatoma cells” (Oncotarget, 2017).

The experiment addresses T1, ENO1 (bought, ATGen #ATGP0404) (UniProt P06733 1-434).
T1 construct: ENO1 (α-enolase), bought protein, ATGen #ATGP0404; also called α-enolase; source: bought: ATGen (#ATGP0404)
Put plainly: SPR; ENO1 immobilised directly on CM5 chip (8171 RU, 10 mM sodium acetate pH 5.0); GRN A 3.5-112.0 μM in HBS-EP (10 mM HEPES, 150 mM NaCl, 3 mM EDTA, 0.05% P20) at 30 μL/min; BIACORE T200; KD = Koff/Kon. To be noted: both partners purified. Background: SPR reads the build-up and loss of mass on a sensor chip optically.

T1 sequence (P06733 whole entry): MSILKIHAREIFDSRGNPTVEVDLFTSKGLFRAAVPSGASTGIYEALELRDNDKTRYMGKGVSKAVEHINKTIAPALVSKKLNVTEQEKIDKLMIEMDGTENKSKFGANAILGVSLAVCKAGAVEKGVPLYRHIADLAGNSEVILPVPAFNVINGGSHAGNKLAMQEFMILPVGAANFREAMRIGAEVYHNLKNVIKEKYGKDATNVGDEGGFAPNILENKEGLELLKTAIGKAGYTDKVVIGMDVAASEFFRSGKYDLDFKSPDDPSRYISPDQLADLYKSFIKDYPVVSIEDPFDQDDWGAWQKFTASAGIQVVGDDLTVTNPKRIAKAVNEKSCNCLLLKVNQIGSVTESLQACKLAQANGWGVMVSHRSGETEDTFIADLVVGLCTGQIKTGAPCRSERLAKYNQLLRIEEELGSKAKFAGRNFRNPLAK

B1: Granulin A (His-GRN A) (peptide, UniProt P28799 281-336, looked up)
chain: DVKCDMEVSCPDGYTCCRLQSGAWGCCPFTQAVCCEDHIHCCPAGFTCDTQKGTCE
notes: granulin A (GRN A), a peptide of about 6 kDa with 12 cysteine residues, derived from proteolysis of progranulin (PGRN); The source and limits of the His-tagged GRN A are not described; The SPR methods call the analyte only 'GRN A'
As usually defined, the Kd is the equilibrium constant for the complex coming apart. Take B1: the Kd stood at 56 µM.
